Data: article PMC2174279 (The Journal of Cell Biology, 2000)

T1: peptide PRP1 (QPDHPPPSPP), LexA bait
T1 peptide: QPDHPPPSPP

T2: peptide PRP2 (PPPYQAPHPP), LexA bait
T2 peptide: PPPYQAPHPP

T3: peptide PBS2 (NKPLPPLPVA), LexA bait (S. cerevisiae)
T3 peptide: NKPLPPLPVA


What was measured:
Assay in all cases: two-hybrid
[1] = target: T1, peptide PRP1 (QPDHPPPSPP), LexA bait
[2] = target: T2, peptide PRP2 (PPPYQAPHPP), LexA bait
[3] = target: T3, peptide PBS2 (NKPLPPLPVA), LexA bait

Row | LacZ expression (two-hybrid) [1] [Miller units] | LacZ expression (two-hybrid) [2] [Miller units] | LacZ expression (two-hybrid) [3] [Miller units] | Binder
1 | 406 | 255 |  | Myo5p-SH3-AD (1020-1219) (domain or fragment) NKAATRRSVPNPASTLTASQSNARPSPPTAATRATPAATPAAAAMGSGRQANIPPPPPPPPPSSKPKEPMFEAAYDFPGSGSPSELPLKKGDVIYITREEPSGWSLGKLLDGSKEGWVPTAYMKPHSGNNNIPTPPQNRDVPKPVLNSVQHDNTSANVIPAAAQASLGDGLANALAARANKMRLESDDEEANEDEEEDDW
2 |  |  | 190 | SH3 domain of Sho1p (176-367) (domain or fragment) not shown
